Target: VEGF165 (soluble) (human, UniProt P15692-4 27-191)
Assay: F-EMSA; 1 mM Mg2+; 10 mM HEPES pH 7.9, 125 mM NaCl, 25 mM KCl, 1 mM MgCl2; F-EMSA at room temperature for 2 h, 5% PAGE at 4 C; flow cytometry in the same buffer
Settings: protein: recombinant, chain copies: 2, label: 5' fluorescein (F-EMSA), 5' biotin (flow)

Sequence of VEGF165 (soluble) (P15692 other isoform, or with tags, fused parts or gaps): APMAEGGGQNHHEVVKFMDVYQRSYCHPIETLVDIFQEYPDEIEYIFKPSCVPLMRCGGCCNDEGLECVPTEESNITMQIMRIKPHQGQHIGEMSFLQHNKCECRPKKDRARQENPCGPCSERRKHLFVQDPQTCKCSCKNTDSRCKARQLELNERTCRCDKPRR

B1: hVap1_T1979 (structured_DNA)
DNA: TCTAGCCCACTGCATAGAGGTAGCCACGTATGTGGGTGTTACCCATTCGTAGCTACCGGTG
Work on B1 yielded a Kd (predicted stem-loops) of 1.7 ± 0.1 nM.

B2: hVap1_Stem (structured_DNA)
DNA: TCTAGCCCACTGCATAGAGGTAGCCACGTATGTTCGTGGCTACCGGTG
Binder B2 has a Kd (two predicted stem-loops) of 5.6 ± 0.3 nM.

B3: hVap1_SST (structured_DNA)
DNA: TCTAGCCCACTGCATAGAGGTAGCTACCGGTG
With B3 the Kd (stem-loop plus shortened second stem-loop) was 2.5 ± 0.2 nM.
